Data on four molecules can be found in US20050101770A1 (SCHERING, published 2005).

To fix the notation:
B1: recombinant cyno IL-10 (cyno IL-10) (ligand, UniProt P79338 19-178, looked up)
chain: SPGQGTQSENSCTRFPGNLPHMLRDLRDAFSRVKTFFQMKDQLDNILLKESLLEDFKGYLGCQALSEMIQFYLEEVMPQAENHDPDIKEHVNSLGENLKTLRLRLRRCHRFLPCENKSKAVEQVKNAFSKLQEKGVYKAMSEFDIFINYIEAYMTMKIRN
B2: recombinant human IL-10 dimer (hIL-10-dimer) (ligand, UniProt P22301 19-178, looked up)
chain: SPGQGTQSENSCTHFPGNLPNMLRDLRDAFSRVKTFFQMKDQLDNLLLKESLLEDFKGYLGCQALSEMIQFYLEEVMPQAENQDPDIKAHVNSLGENLKTLRLRLRRCHRFLPCENKSKAVEQVKNAFNKLQEKGIYKAMSEFDIFINYIEAYMTMKIRN
notes: also called hu IL-10
B3: Monoclonal humanized antibody SCH 708980 to recombinant human IL-10 (humanized 12G8) (antibody, human IgG1, kappa, V domains shown)
VH: QVQLVESGGGVVQPGRSLRLSCAASGFTFSDYHMAWVRQAPGKGLEWVASITLDATYTYYRDSVRGRFTISRDNSKNTLYLQMNSLRAEDTAVYYCARHRGFSVWLDYWGQGTLVTVSS
VL: DIQMTQSPSSLSASVGDRVTITCKTSQNIFENLAWYQQKPGKAPKLLIYNASPLQAGVPSRFSGSGSGTDFTLTISSLQPEDFATYYCHQYYSGYTFGPGTKLELKR
notes: also called h12G8; hu12G8
B4: rat anti hIL-10 mAb 12G8 (r12G8): JES3.12G8 (antibody, V domains shown)
VH: EVQLVESGGGLVRPGGSLRLSCTASGFTFSDYHMAWVRQSPDKGLEWVASITLDATYTYYRDSVRGRFTISRNNAKTTLYLQMDSLRSEDTATFYCTRHRGFSVWLDYWGQGVMVTVSS
VL: DIQMTQSPSLLSASVGDRVTLNCKTSQNIFENLAWYQQKLREPPKLLIFNASPLQAGIPSRFSGSGSGTDFTLTITSLQPEDVATYFCHQYYSGYTFGPGTKLELKR
notes: Rat monoclonal antibody; also called Rat 12G8; JES.12G8

Assay [1] deals with B3. Kind of assay: IGEN competitive ECLA, mean ± S.D. (n); summary of Table 15. The text has this:
(§1) Materials used. 96 well Polypropylene plates (Costar, Cat. No. 3365, Fisher Sci. Cat. No. 07200697); assay buffer of 0.1% BSA, 0.05% tween 20, PBS pH 7.5; paramagnetic beads (Streptavidin-Dynabeads, Igen, Inc., Cat. No. 110029); recombinant human IL-10 dimer (hIL-10-dimer); recombinant human IL-10-monomer (hlL-10-mono); recombinant mouse IL-10 (mIL-10); recombinant cyno IL-10 (cyno IL-10); and recombinant hIL-10Ra (hL-10Ra): FLAG-tagged protein. Ori-Tag labeled anti-FLAG M2 monoclonal antibodies were prepared using Ori-Tag-NHS ester (Igen, Inc. Cat. No. 110034) according to manufacturer's protocol (OriTag label: IgG challenge ratio 8:1). Anti-Flag M2 monoclonal antibodies were purchased from Sigma (Cat. No. F3165). Ori-Tag labeled anti hIgG 1A2 monoclonal antibodies were prepared as above using rat anti hIgG monoclonal antibodies. Ori-Tag labeled anti rat IgG antibodies were prepared as above from polyclonal Goat anti rat IgG (H+L) antibodies (Jackson Immunoresearch Laboratories, Inc. PA, Cat. No. 112-005-143). Biotinylated recombinant human IL-10 (hIL-10-biotin) was prepared using TFP-PEO-biotin (Pierce, Cat. No. 21219) according to manufacturer's recommendations (Pierce bulletin 0874). The rat anti hIL-10 mAb 12G8 (r12G8): JES3.12G8 and humanized anti hIL-10 mAb 12G8 (hl2G8-1) were prepared as described herein.
(§2) Protocol. ⅓ serial dilutions in 50 microliters of the assay buffer were made in 96-well microtiter plate for all unlabeled IL-10 preparations (mIL-10, cyno IL-10, hIL-10 dimer, hIL-10 mono) starting with 3 μg/ml in the first well. All samples were run in duplicates. 50 μl of hIL-10-biotin at 25 ng/ml was added to each well, followed by the addition of either hIL-10Ra (50 μl at 100 ng/ml) or […] (50 μl at 10 ng/ml). 50 microliters of Ori-Tag conjugated secondary antibodies was added to each well at 500 ng/ml conc. For hIL-10Ra, r12G8 and h12G8 the following Ori-Tag conjugated were used accordingly: anti-FLAG M2-OriTag, anti-rat IgG-OriTag and anti hIgG 1A2-OriTag. Finally to each well 50 μl of Streptavidin-Dynabeads at 0.1 mg/ml was added. After a one hour incubation at room temperature the plate was processed by the M-series M8/384 analyzer. Percent inhibition of the signal by unlabeled IL-10 preparations was calculated relative to the control samples. To plot the data and calculate IC₅₀ the GraphPad Prism Software was used.

Assay [2] addresses B4. Described as above.
Text: as §1, §2

The target of assay [3] is B3. Nature of the assay: competitive ECLA (IGEN): unlabeled IL-10 varied, competitor hIL-10-biotin.
Text: as §1, §2

In assay [4] the target is B4. Described as above.
Text: as §1, §2

For assay [5], the target named is T1, recombinant hIL-10Ra (hIL-10Ra): FLAG-tagged protein (human, UniProt Q13651 22-235).
T1 construct: The order of the receptor part and the FLAG tag is unknown; also called huIL-10Ra; not shown: FLAG tag
T1 sequence (looked up): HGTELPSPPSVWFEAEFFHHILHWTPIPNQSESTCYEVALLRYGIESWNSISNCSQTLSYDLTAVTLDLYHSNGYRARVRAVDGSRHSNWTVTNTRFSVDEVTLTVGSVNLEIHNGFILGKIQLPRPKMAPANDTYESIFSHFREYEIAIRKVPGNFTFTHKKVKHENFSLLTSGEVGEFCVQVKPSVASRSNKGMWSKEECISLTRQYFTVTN
Described as above.
Text: as §1, §2

The target in assay [6] is T2, recombinant mouse IL-10 (mIL-10) (mouse, UniProt P18893 19-178).
T2 sequence (looked up): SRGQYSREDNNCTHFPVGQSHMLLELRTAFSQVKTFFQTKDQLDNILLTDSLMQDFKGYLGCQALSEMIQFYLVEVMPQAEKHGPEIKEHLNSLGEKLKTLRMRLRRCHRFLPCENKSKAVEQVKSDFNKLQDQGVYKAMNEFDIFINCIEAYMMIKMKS
Kind of assay: KinExA, solution equilibrium, mIL-10 run #2. The procedure:
(§3) The equilibrium dissociation constant (Kd) for humanized antibody SCH 708980 was determined using KinExA 3000 (Sapidyne Instruments Inc.). KinExA uses the principle of the Kinetic Exclusion Assay method based on measuring the concentration of uncomplexed antibody in a mixture of antibody, antigen and antibody-antigen complex. The concentration of free antibody was measured by exposing the mixture to a solid-phase immobilized antigen for a very brief period of time. In practice, this was accomplished by flowing the solution phase antigen-antibody mixture past antigen coated particles trapped in a flow cell. Data generated by the instrument were analyzed using custom software. Equilibrium constants were calculated using a mathematical theory based on the following assumptions: [0139] 1. The binding follows the reversible binding equation for equilibrium: Kₒₙ[Ab][Ag]=Koff[AbAg] [0140] 2. Antibody and antigen bind 1:1, and total antibody equals antigen-antibody complex plus free antibody [0141] 3. Instrument signal is linearly related to free antibody concentration
(§4) For mIL-10 runs the following conditions were used: [0154] […] Sample flow rate: 0.25 ml/min [0156] Label volume: 0.5 ml [0157] Label flow rate: […] [0158] mAb conc.: 1 nM [0159] Highest Ag (mIL-10) conc.: 50 nM [0160] Lowest Ag (mIL-10) conc.: 48.8 pM […]
Background: In KinExA the mixture passes briefly over coated beads that capture the unbound partner.

For assay [7], the target named is B1. Kind of assay: KinExA, solution equilibrium, cyno IL-10 run #3. The procedure: as §3
(§5) For cyno IL-10 runs the following conditions were used: [0163] Sample volume: 2 ml [0164] Sample flow rate: 0.25 ml/min [0165] Label volume: 1 ml [0166] Label flow rate: 0.25 ml/min [0167] mAb conc.: 0.1 nM [0168] Highest Ag (mIL-10) conc.: 5.0 nM [0169] Lowest Ag (mIL-10) conc.: 4.88 pM […]

Assay [8] has as its target T2, recombinant mouse IL-10 (mIL-10). Kind of assay: KinExA, solution equilibrium, mIL-10 run #3. On the procedure:
as §3, §4

Assay [9] addresses B2. Kind of assay: KinExA, solution equilibrium, hIL-10 run #2. The procedure: as §3
(§6) Experimental conditions: All runs were done in duplicate. For hIL-10 runs the following conditions were used: [0145] Sample volume: 1.5 ml [0146] Sample flow rate: 0.25 ml/min [0147] Label volume: 0.5 ml [0148] Label flow rate: 0.25 ml/min [0149] mAb conc.: 0.1 nM [0150] Highest Ag (hlL-10) conc.: 4.0 nM [0151] […]

The target in assay [10] is B2. Kind of assay: KinExA, solution equilibrium, hIL-10 run #1. On the procedure: as §3, §6
Assay [11] concerns the target B1. Kind of assay: KinExA, solution equilibrium, cyno IL-10 run #2. The procedure: as §3, §5
Assay [12] deals with B2. Kind of assay: Biacore, mean ± S.D. (n); format not described. (In general: SPR reads the build-up and loss of mass on a sensor chip optically.)
Assay [13] deals with T2, recombinant mouse IL-10 (mIL-10). Nature of the assay: Biacore, mean ± S.D. (n); format not described.
Assay [14] deals with B1. Nature of the assay: Biacore, mean ± S.D. (n); format not described.
In assay [15] the target is B1. Nature of the assay: KinExA, solution equilibrium, cyno IL-10 run #1. The procedure:
as §3, §5

The target of assay [16] is B2. Kind of assay: KinExA, solution equilibrium, hIL-10 run #3. The procedure: as §3, §6
In assay [17] the target is T2, recombinant mouse IL-10 (mIL-10). Kind of assay: KinExA, solution equilibrium, mIL-10 run #1. On the procedure: as §3, §4
Assay [18] concerns the target B2. Nature of the assay: KinExA, mean ± S.D. (n) of the runs of Table 14.
In assay [19] the target is T2, recombinant mouse IL-10 (mIL-10). Nature of the assay: KinExA, mean ± S.D. (n) of the runs of Table 14.
Assay [20] has as its target B1. Kind of assay: KinExA, mean ± S.D. (n) of the runs of Table 14.
The target in assay [21] is B2. Kind of assay: KinExA, mean (n).

On to B1, for which the IC50 in assay [1] was determined as 4.9 nM; in [2], 6.6 nM; in assay [3], 4.9 nM; in assay [4] it was 6.6 nM; in assay [5], 17.6 nM.
For B2, the IC50 worked out at 4 nM in assay [1]; 4.7 nM in [2]; 4 nM in assay [3]; 4.7 nM in [4]; 2.9 nM in assay [5].
In the case of B3, the Kd stood at 0.267 nM in [6]; 0.0925 nM in [7]; 0.308 nM in assay [8]; 0.0323 nM in assay [9]; 0.0274 nM in assay [10]; 0.0966 nM in [11]. The dissociation constant (Kd) in assay [12] turned out to be 0.511 nM; in assay [13], 8.6 nM; in [14], 0.659 nM; in [15], 0.0397 nM; in [16] it was 0.0155 nM; in assay [17], 0.282 nM. In addition, the results for the Kd in assay [18], in assay [19] and in assay [20] were 0.025 nM, 0.286 nM and 0.076 nM, respectively.
With B4, the Kd in assay [21] stood at 0.023 nM; in assay [12] it was 0.277 nM; in [13], 7.4 nM; in assay [14], 0.33 nM.

Broadly, the IC50 is the concentration that inhibits the measured activity by half. A word on the Kd: it is the concentration at which binding is half-saturated.
